According to article doi:10.1101/2024.08.27.609886:

Molecular target: FibrilPaint1
Test: MST

- Kd: 1.5 µM
Substance: E3 ligase CHIP (from UniProt Q9UNE7 23-303) (enzyme)
